Measured values as given in PMC9534960, “De Novo Design of an Androgen Receptor DNA Binding Domain‐Targeted peptide PROTAC for Prostate Cancer Therapy” (Advanced Science, 2022).
Several values for one entry are separate records, joined by “and”; a condition that tells them apart may be missing. Equal values may be shown once.

Key:
Conditions in all cases: both partners purified
[1] = molecular target: T1, Androgen receptor splice variant‐7 (AR‐V7), recombinant from E. coli (UniProt P10275-3 1-644); experiment: ITC; protein (around 20 µM, 0.2 ml) in the sample cell, peptide (around 200 µM) in the syringe; 25 °C; first injection 0.4 µl, then 19 injections of 2 µl
T1 construct: Plasmid bought from GenScript; also called pET‐28a (AR – V7); pET28‐AR‐V7; not shown: His tag (from the vector pET‐28a)
T1 sequence (looked up): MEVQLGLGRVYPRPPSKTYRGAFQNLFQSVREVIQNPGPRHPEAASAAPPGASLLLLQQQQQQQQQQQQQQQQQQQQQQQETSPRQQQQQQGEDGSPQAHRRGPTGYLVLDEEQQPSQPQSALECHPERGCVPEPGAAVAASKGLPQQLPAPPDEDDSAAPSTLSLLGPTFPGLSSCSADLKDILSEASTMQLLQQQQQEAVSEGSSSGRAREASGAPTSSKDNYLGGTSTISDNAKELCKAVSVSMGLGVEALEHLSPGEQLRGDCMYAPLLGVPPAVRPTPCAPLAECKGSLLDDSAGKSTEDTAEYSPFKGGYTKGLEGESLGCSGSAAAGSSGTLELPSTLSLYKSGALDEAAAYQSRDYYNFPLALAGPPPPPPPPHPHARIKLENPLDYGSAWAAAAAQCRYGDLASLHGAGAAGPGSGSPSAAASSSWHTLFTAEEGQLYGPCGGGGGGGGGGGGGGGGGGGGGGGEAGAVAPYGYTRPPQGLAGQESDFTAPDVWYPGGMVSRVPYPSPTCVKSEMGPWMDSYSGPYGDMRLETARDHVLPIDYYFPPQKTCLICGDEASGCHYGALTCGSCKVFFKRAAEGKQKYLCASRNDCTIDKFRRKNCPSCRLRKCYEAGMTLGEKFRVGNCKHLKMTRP

[2] = molecular target: T2, MDM2, recombinant from E. coli (UniProt Q00987 1-491); experiment: as above
T2 construct: E3 ligase MDM2; Plasmid bought from GenScript; also called E3 ligase MDM2; pET‐28a (MDM2)
T2 sequence (Q00987 whole entry): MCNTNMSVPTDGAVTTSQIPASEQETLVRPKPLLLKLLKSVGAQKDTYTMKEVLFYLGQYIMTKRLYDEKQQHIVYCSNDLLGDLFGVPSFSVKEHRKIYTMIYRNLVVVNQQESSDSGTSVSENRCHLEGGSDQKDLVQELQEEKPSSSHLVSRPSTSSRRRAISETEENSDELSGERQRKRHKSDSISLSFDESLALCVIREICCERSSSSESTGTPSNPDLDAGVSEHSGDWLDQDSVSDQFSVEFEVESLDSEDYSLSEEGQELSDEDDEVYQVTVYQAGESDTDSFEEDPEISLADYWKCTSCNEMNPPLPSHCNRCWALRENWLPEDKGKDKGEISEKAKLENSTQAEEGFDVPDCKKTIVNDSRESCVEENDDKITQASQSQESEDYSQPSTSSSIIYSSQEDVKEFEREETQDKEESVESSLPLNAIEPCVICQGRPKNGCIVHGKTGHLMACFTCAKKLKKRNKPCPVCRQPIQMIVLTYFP

MDMX = molecular target: T3, MDMX (UniProt O15151 1-490); experiment: as above
T3 construct: MDMX; MDMX is not in the methods' list of proteins made in E. coli
T3 sequence (looked up): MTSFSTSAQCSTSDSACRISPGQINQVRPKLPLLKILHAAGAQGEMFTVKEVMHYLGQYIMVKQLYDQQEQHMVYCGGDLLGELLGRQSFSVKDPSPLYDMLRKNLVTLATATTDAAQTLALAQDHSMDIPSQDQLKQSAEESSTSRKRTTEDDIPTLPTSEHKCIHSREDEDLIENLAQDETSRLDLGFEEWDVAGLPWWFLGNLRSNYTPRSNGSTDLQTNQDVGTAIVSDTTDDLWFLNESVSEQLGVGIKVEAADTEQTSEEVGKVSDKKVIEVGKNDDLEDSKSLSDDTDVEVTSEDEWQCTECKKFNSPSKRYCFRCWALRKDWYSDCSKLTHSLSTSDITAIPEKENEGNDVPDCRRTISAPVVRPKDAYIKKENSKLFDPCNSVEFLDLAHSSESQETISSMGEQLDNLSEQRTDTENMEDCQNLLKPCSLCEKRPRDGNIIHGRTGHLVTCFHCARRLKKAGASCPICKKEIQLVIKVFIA

[3] = molecular target: T4, AR DBD domain protein, labeled with rhodamine B (rhodamine B label); experiment: fluorescence polarisation; rhodamine B labeled AR DBD, 200 nM of AR DBD dimer in complex with DNA, rising AR pep‐PROTAC concentration; maximum FP taken as 100% dimer, minimum as monomer
T4 chain: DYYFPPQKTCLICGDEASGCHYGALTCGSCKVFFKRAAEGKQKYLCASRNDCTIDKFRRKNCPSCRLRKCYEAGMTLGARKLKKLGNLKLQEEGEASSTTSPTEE

B1: AR pep‐PROTAC drug (designed peptide PROTAC) (peptide)
peptide: YLCSSNNNRERDKFRRGGSGGTSFEQFWAWLWP
notes: flexible linker; Free peptide in ITC and fluorescence polarisation; also called AR DBD PROTAC; AR DBD PROTAC drug; source: synthetic peptide (solid‐phase peptide synthesis, preparative HPLC)
For B1, the Kd [1] was 49.6 nM and 49.5 nM, the Kd [2] was 12.2 nM and the Kd (MDMX) was 1430 nM. It also gave an EC50 [3] of 1800 nM.
